From the supplement of paper PMC10567573

B1: ZNF75A (parent)
chain: RTHTGEQPYTCSICRRNFSRRSSL
B2: ZER1 (parent)
chain: KEMARKVIEHCSNFKEENMDTSR

Variants of: B1
Assay: protein stability index of a GFP-peptide fusion (GPS, HEK-293T) (PSI 1-6); higher = more stable
Conditions: c terminus: a fixed tail appended
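Further: lentivirally expressed fusions sorted by FACS into six bins by GFP to DsRed ratio, PSI derived from sequencing read proportions per bin multiplied by bin number.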

Protein stability index of substitutions, site by site:
S19: P 2.23; V 2.4; M 2.68; I 3.39; D 2.67; C 2.52; N 3.59; R 2.99; T 3.25; H 2.62; K 2.91; E 3.05; A 2.04; G 2.68; Q 2.72; W 2.21; L 2.51; Y 4.33; F 2.59
S12: G 2.38; C 2.4; F 2.83; I 2.53; A 2.21; D 3.1; T 2.82; V 2.98; H 3.13; L 2.04; E 2.26; Y 2.81; R 3.07; M 2.41; P 3.14; Q 2.61; N 2.52; K 2.63; W 2.21
S23: R 2.9; D 2.28; I 2.13; G 2.76; E 2.17; L 2.15; Y 1.78; P 2.94; V 2.5; W 2.34; C 2.85; M 2.33; T 2.72; K 3.2; N 2.63; F 1.78; Q 2.04; A 2.67; H 2.32
C14: W 2.68; Q 3.72; K 4.03; T 4.21; M 3.92; N 4.11; L 3.5; V 4.03; R 4.49; S 4.04; F 3.59; E 4.42; I 4.01; G 4.72; Y 3.66; P 3.6; H 3.87; A 3.67; D 3.7
N17: I 2.18; T 3.5; D 2.3; Y 2.63; V 2.62; H 2.61; S 2.74; C 3.01; F 2.36; L 1.88; Q 3.17; E 2.19; R 2.99; W 2.46; K 3.78; G 2.75; A 3.22; M 2.3
I13: E 2.71; W 2.51; N 3.72; H 2.81; T 2.7; F 2.65; V 3.18; Q 2.74; K 3.5; M 2.21; Y 1.96; A 2.54; C 2.71; P 3.44; R 2.96; D 2.65; S 2.71; G 2.42; L 2.25
R21: E 3.51; I 1.61; F 1.95; H 2.12; Y 1.39; M 2.37; K 2.5; T 2.84; G 1.72; V 1.95; S 1.58; A 1.64; P 1.97; L 1.79; Q 3.09; C 2.24; N 2.72; W 2.69; D 2.73
S22: M 2.25; C 2.64; I 2.77; T 3.27; Y 2.99; K 3.16; Q 2.77; L 2.91; A 2.86; G 2.51; E 2.77; R 3.55; P 2.76; N 2.65; W 2.42; H 3.5; F 2.81; V 2.93; D 2.3
R15: C 2; Y 1.89; I 2.32; A 2.13; D 2.02; V 1.7; G 2.93; Q 2.25; K 2.86; H 2.49; P 3.19; F 1.85; T 2.34; N 2.84; S 2.47; M 1.6; E 2.03; W 2.02; L 1.54
R16: F 1.81; K 2.92; C 1.34; T 2.34; Q 2.99; M 2.43; W 1.37; S 1.86; Y 1.59; P 2.3; N 1.99; G 2.05; D 1.78; H 1.59; A 1.99; L 1.27; I 1.88; E 2.53; V 1.79
F18: R 3.99; T 2.28; W 2.31; L 2.21; P 2.14; I 2.28; E 1.74; S 2.69; H 2.83; K 2.6; A 3.47; N 2.29; C 2.57; Y 2.61; Q 2.41; D 2.76; V 2.8; M 2.49; G 2.38
C11: P 4.22; S 3.86; M 4.07; T 4.58; R 3.74; Y 3.3; V 3.61; N 4; W 3.77; Q 4.39
L24: R 3.63; Y 3.03; A 3.02; K 4.06; I 2.79; F 2.65; M 2.96; V 2.29; G 3.1; S 2.99; N 2.56; W 1.96; C 2.63; D 2.71; Q 3.05; H 3.23; T 3.03; P 3.82; E 4.02
R20: G 3.5; F 1.72; N 2.19; V 2.46; D 2.46; K 2.12; C 2.4; Q 2.13; H 2.53; M 2.15; P 2.36; S 1.93; Y 2.24; E 1.83; W 1.52; T 2.59; I 1.73; A 2.67; L 2.56

Variants of: B2
Assay: as above
Conditions: c terminus: native

Protein stability index of substitutions, site by site:
E9: P 4.58; S 4.26; A 4; H 3.92; D 4.11
N18: L 2.91; S 3.7; Q 3.6; V 3.46
C11: K 4.94
E17: A 2.98; H 2.83
K6: V 2.52; F 1.72; W 2.71; Q 3.73
F14: E 4.78
R23: I 4.9
K1: P 3.36
R5: Q 3.26; E 4.72; F 2.48
E16: P 3.31; S 4.19; T 3.1
K15: E 4.32; Y 3.27; R 2.8; P 4.08
D20: G 2.68; E 2.51; H 2.96; V 1.51
M19: T 3.92; Y 3.71; V 3.77; S 3.63; E 4.15; W 3.64; I 4.32; D 4.46
H10: S 3.57; P 5.17; A 3.49
V7: M 2.44; K 4.88; I 1.59; N 5.1; F 3.83; P 4.46; D 5.26
A4: M 2.48; E 4.39
T21: H 2.18; A 4.09; S 4.65
E2: R 3.57; L 2.76; G 2.82; T 3.39; W 2.01; S 2.74; N 3.4; C 3.12
S12: T 3.59; V 2.96
M3: N 4.14; K 4.36; V 4.22
N13: P 3.32; R 3.11; C 3.04; Q 3.07; M 2.88; T 3.68
S22: R 2.38; T 4.42
I8: P 4.7
